Measured values as given in patent US20120324602A1.
One block for each binder: values may come before it.

Experiments:
Experiment in all cases: TAP-MS, C-terminal GS tag
[1] = target: SWIB complex BAF60b domain-containing protein (Swp73B) (Arabidopsis thaliana)
[2] = target: T1, actin-related protein 7 (ARP7) (Arabidopsis thaliana)
T1 sequence (Q8L4Y5 1-363, looked up): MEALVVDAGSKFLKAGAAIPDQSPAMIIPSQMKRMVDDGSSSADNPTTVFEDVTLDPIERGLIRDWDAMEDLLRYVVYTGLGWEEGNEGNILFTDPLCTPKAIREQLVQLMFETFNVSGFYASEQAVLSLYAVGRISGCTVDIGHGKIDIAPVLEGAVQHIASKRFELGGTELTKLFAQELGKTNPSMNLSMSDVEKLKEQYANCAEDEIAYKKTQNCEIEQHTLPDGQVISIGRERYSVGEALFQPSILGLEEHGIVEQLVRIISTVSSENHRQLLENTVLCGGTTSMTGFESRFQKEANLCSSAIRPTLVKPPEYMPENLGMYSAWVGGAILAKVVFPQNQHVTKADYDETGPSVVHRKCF

[3] = target: homeobox-leucine zipper protein (HB-2)/HD-ZIP protein (Arabidopsis thaliana)
[4] = target: expressed protein, similar to At3g03460 (AT5G17510) (Arabidopsis thaliana)
[5] = target: SNF2 protein (BRM) (Arabidopsis thaliana)
[6] = target: importin alpha-2 (IMPA2) (Arabidopsis thaliana)
[7] = target: expressed protein, similar to At4g22320 (AT5G55210) (Arabidopsis thaliana)
[8] = target: chromatin remodeling protein (SYD) (Arabidopsis thaliana)
[9] = target: T2, SWIRM domain-containing protein (SWI3C) (Arabidopsis thaliana)
T2 sequence (Q9XI07 1-807, looked up): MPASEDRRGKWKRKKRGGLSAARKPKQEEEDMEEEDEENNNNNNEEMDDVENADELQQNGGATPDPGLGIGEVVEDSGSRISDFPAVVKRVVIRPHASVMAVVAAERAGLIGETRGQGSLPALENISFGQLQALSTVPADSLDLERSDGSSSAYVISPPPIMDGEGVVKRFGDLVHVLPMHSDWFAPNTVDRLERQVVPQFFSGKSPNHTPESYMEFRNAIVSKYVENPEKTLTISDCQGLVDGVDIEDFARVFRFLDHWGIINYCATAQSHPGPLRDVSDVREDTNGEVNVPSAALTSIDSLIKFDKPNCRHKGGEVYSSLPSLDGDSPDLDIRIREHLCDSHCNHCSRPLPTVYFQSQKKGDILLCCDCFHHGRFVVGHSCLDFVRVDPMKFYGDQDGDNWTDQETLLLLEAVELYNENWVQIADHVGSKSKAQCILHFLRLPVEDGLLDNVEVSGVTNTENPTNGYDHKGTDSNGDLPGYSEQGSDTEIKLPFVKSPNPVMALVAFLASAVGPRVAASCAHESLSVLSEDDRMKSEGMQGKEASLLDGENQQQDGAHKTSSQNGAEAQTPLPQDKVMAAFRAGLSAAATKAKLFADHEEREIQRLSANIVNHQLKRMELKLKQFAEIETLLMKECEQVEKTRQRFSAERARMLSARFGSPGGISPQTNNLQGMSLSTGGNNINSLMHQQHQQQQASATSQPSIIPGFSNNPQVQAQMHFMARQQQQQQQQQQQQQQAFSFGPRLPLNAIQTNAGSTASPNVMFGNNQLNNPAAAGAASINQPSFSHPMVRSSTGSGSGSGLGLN

[10] = target: expressed protein (AT5G13030) (Arabidopsis thaliana)
[11] = target: G2484-1, agenet domain-containing protein (Arabidopsis thaliana)
[12] = target: importin beta-2 (Arabidopsis thaliana)
[13] = target: DNA-binding bromodomain-containing protein (AT1G20670) (Arabidopsis thaliana)
[14] = target: expressed protein, similar to DAG protein (AT3G15000) (Arabidopsis thaliana)
[15] = target: T3, actin-related protein 4 (ARP4) (Arabidopsis thaliana)
T3 sequence (Q84M92 1-441, looked up): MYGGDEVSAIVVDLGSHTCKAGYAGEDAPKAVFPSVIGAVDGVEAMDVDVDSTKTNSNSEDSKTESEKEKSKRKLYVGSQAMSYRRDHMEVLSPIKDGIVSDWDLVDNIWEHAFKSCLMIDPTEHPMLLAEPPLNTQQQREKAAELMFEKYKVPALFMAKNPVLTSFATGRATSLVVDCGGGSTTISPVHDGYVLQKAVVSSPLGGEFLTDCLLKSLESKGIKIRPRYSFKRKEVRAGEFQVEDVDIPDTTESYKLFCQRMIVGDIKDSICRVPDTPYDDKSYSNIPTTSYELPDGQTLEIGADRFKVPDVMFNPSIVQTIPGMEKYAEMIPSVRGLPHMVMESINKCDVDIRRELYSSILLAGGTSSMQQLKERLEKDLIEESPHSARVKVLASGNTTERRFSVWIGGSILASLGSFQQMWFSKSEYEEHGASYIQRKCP

[16] = target: 26S proteasome regulatory subunit (RPN9) (Arabidopsis thaliana)
[17] = target: importin alpha-1 subunit (IMPA1) (Arabidopsis thaliana)
[18] = target: splicing factor (AT3G55220) (Arabidopsis thaliana)
[19] = target: T4, phytochrome A supressor spa1 (SPA1) (Arabidopsis thaliana)
T4 sequence (Q9SYX2 1-1029, looked up): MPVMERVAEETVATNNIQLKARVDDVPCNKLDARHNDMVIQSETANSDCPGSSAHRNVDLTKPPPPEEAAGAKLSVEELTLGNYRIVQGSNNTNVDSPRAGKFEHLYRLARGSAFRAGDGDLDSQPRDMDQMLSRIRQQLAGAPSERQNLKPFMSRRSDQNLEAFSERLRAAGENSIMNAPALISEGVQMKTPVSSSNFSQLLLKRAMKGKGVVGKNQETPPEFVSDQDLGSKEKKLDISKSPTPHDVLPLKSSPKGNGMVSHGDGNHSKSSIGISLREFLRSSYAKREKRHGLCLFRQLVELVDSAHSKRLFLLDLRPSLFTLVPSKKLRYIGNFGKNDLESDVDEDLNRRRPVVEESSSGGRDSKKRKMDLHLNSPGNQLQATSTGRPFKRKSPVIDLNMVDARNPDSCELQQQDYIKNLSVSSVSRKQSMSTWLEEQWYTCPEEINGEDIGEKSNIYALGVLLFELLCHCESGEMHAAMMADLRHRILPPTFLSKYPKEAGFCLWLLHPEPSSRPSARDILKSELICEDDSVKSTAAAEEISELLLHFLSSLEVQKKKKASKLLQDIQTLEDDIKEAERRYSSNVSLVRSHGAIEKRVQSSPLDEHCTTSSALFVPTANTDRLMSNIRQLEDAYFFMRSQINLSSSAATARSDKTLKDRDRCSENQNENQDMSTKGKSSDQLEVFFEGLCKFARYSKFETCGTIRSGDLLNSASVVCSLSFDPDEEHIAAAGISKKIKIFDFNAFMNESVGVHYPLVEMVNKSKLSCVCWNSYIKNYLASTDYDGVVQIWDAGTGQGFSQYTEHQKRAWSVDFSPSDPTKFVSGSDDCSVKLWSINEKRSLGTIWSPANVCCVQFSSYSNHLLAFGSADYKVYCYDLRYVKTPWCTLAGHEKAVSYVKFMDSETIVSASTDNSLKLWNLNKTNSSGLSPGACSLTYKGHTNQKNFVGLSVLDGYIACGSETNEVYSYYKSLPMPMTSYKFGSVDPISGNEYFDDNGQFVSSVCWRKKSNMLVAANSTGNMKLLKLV

[20] = target: importin alpha-1 subunit (IMPA4) (Arabidopsis thaliana)
[21] = target: DNA-binding bromodomain-containing protein, similar to At1g20670 (AT1G76380) (Arabidopsis thaliana)
[22] = target: T5, SE (SERRATE) (Arabidopsis thaliana)
T5 sequence (Q9ZVD0 1-720, looked up): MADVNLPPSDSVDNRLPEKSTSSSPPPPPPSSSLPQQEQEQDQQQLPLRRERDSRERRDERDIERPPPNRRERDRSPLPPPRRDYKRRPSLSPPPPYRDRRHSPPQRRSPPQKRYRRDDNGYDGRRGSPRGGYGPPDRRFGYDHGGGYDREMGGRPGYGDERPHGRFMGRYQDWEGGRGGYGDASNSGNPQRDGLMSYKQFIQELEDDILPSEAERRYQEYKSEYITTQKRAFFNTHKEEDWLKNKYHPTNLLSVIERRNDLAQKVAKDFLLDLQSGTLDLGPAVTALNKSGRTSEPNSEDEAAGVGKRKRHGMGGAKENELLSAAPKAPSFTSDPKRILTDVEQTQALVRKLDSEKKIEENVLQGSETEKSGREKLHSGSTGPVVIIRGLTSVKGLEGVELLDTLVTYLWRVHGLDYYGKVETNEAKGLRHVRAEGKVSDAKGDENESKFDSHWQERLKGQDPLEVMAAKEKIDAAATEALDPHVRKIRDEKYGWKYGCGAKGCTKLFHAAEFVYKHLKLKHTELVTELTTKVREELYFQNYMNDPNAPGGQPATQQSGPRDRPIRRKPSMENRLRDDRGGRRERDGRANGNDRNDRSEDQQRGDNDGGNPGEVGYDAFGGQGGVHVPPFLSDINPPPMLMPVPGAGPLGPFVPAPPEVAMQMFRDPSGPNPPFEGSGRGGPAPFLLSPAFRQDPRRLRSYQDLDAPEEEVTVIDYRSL

[23] = target: unknown protein, similar to At5g17510 (AT3G03460) (Arabidopsis thaliana)
[24] = target: RD21 (RESPONSIVE TO …ON 21) (Arabidopsis thaliana)
[25] = target: Swp73A (Arabidopsis thaliana)
[26] = target: DNA-binding bromodomain-containing protein, similar to At1g20670 (AT5G55040) (Arabidopsis thaliana)

- C-GS (times co-purified) [1]: 4
- C-GS (times co-purified) [2]: 4
- C-GS (times co-purified) [3]: 1
- C-GS (times co-purified) [4]: 3
- C-GS (times co-purified) [5]: 4
- C-GS (times co-purified) [6]: 4
- C-GS (times co-purified) [7]: 4
- C-GS (times co-purified) [8]: 4
- C-GS (times co-purified) [9]: 4
- C-GS (times co-purified) [10]: 1
- C-GS (times co-purified) [11]: 4
- C-GS (times co-purified) [12]: 4
- C-GS (times co-purified) [13]: 1
- C-GS (times co-purified) [14]: 3
- C-GS (times co-purified) [15]: 4
- C-GS (times co-purified) [16]: 1
- C-GS (times co-purified) [17]: 4
- C-GS (times co-purified) [18]: 1
- C-GS (times co-purified) [19]: 1
- C-GS (times co-purified) [20]: 1
B1: AN3-GS (protein, UniProt Q8L8A5 1-210, looked up)
GRF1-interacting factor 1: MQQHLMQMQPMMAGYYPSNVTSDHIQQYLDENKSLILKIVESQNSGKLSECAENQARLQRNLMYLAAIADSQPQPPSVHSQYGSAGGGMIQGEGGSHYLQQQQATQQQQMTQQSLMAARSSMLYAQQQQQQQPYATLQHQQLHHSQLGMSSSSGGGGSSGLHILQGEAGGFHDFGRGKPEMGSGGGGEGRGGSSGDGGETLYLKSSDDGN
modifications: C-terminal GS tag

- C-GS (times co-purified) [1]: 2
- C-GS (times co-purified) [2]: 2
- C-GS (times co-purified) [4]: 2
- C-GS (times co-purified) [5]: 2
- C-GS (times co-purified) [21]: 2
- C-GS (times co-purified) [7]: 1
- C-GS (times co-purified) [9]: 2
- C-GS (times co-purified) [22]: 1
- C-GS (times co-purified) [23]: 1
- C-GS (times co-purified) [13]: 2
- C-GS (times co-purified) [24]: 2
- C-GS (times co-purified) [25]: 2
- C-GS (times co-purified) [26]: 1
B2: ARP4-GS (protein, UniProt Q84M92 1-441, looked up)
Actin-related protein 4: MYGGDEVSAIVVDLGSHTCKAGYAGEDAPKAVFPSVIGAVDGVEAMDVDVDSTKTNSNSEDSKTESEKEKSKRKLYVGSQAMSYRRDHMEVLSPIKDGIVSDWDLVDNIWEHAFKSCLMIDPTEHPMLLAEPPLNTQQQREKAAELMFEKYKVPALFMAKNPVLTSFATGRATSLVVDCGGGSTTISPVHDGYVLQKAVVSSPLGGEFLTDCLLKSLESKGIKIRPRYSFKRKEVRAGEFQVEDVDIPDTTESYKLFCQRMIVGDIKDSICRVPDTPYDDKSYSNIPTTSYELPDGQTLEIGADRFKVPDVMFNPSIVQTIPGMEKYAEMIPSVRGLPHMVMESINKCDVDIRRELYSSILLAGGTSSMQQLKERLEKDLIEESPHSARVKVLASGNTTERRFSVWIGGSILASLGSFQQMWFSKSEYEEHGASYIQRKCP
modifications: C-terminal GS tag
